Results from US20220267438A1 (Janssen / Centocor, published 2022).
Where two headings read alike, the source gives them in different places.

Legend:
[1] = target: T1, human CD3 (CD3ε of the TCR/CD3 complex) on primary human pan T cells (human, UniProt P07766 23-207); experiment: flow cytometry on T cells of donor D316144, with curve extrapolation
T1 construct: whole, on cells; On T cells CD3ε stands in the whole TCR/CD3 complex
Description: (§1) Flow cytometry was used to evaluate the CD3 arm (i.e., CD3B376) binding of BGCB491 to CD3⁺ pan T cells from 7 different healthy human. Cell-based EC₅₀ for CD3B376 could not be determined due to lack of saturation kinetics at 1 hour (FIG. 26). Bioinformatic extrapolation was performed (FIG. 27) using the CD3B376×Null control antibody (i.e., GCDB381) molecule, which saturates within 2 μM top concentration dose-response to constrain the top of the non-linear regression curve to generate a full curve that enables estimation of ECₓ values (Table 21).

[2] = target: T1, human CD3 (CD3ε of the TCR/CD3 complex) …; experiment: flow cytometry on T cells of donor D327645, with curve extrapolation
Description: as §1

[3] = target: T2, cynomolgus monkey CD3 on peripheral blood mononuclear cells (cynomolgus monkey, UniProt Q95LI5 22-198); experiment: flow cytometry, cynomolgus monkey PBMCs
T2 construct: whole, on cells; also called cyno CD3
Description: The CD3-binding arm (i.e., CD3B376) binds to cynomolgus monkey CD3. Briefly, binding was measured by flow cytometry after incubating human and cynomolgus monkey peripheral blood mononuclear cells (PBMCs) with GCDB381 (i.e., CD3B376 Fab in bivalent IgG1-AAS antibody), CD3B891 (i.e., CD3B376×Null, IgG1-AAS bispecific antibody), or null control.

[4] = target: T1, human CD3 (CD3ε of the TCR/CD3 complex) …; experiment: flow cytometry on T cells of donor D203727, with curve extrapolation
Description: as §1

[5] = target: T3, human GPRC5D (G-protein coupled receptor family C group 5 member D) on cells (human, UniProt Q9NZD1 1-345); experiment: cell binding, H929 and MM.1R cells; lower end of the range over H929 and MM.1R cells
T3 construct: Target on H929 or MM.1R BCMA knockout cells, K562 cells expressing human GPRC5D and HEK293 cells of the cell microarray

[6] = target: T3, human GPRC5D (G-protein coupled …); experiment: cell binding, H929 and MM.1R cells
[7] = target: T4, BCMW37 (recombinant human BCMA antigen) (human, UniProt Q02223 1-54, limits assumed); experiment: SPR
T4 construct: also called BCMA BCMW37 chain; human BCMA (SPR antigen)
T4 sequence (looked up): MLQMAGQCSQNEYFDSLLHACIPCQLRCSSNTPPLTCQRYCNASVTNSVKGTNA

[8] = target: T4, BCMW37 (recombinant human BCMA antigen); experiment: SPR; antigen BCMW37; parental BCMA binder as scFv
[9] = target: T5, human BCMA (B cell maturation antigen, TNFRSF17) on cells (human, UniProt Q02223 1-184); experiment: cell binding, H929 and MM.1R cells
T5 construct: whole, on cells; Target on H929 or MM.1R GPRC5D knockout cells, K562 cells expressing human BCMA, HEK293 cells of the cell microarray, and BCMA-only lymphoma lines; also called CD269; surface BCMA
T5 sequence (looked up): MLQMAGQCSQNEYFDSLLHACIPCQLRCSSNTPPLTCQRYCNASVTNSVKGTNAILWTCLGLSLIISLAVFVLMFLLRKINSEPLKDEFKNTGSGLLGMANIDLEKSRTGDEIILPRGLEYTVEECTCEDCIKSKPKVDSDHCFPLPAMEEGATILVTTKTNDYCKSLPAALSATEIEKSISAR

[10] = target: T5, human BCMA (B cell maturation antigen, …); experiment: cell binding, H929 and MM.1R cells; remark: listed apart in the source
[11] = target: T5, human BCMA (B cell maturation antigen, …); experiment: cell-based or functional assay
[12] = target: T3, human GPRC5D (G-protein coupled …); experiment: cell-based or functional assay

T3 sequence (Q9NZD1 whole entry): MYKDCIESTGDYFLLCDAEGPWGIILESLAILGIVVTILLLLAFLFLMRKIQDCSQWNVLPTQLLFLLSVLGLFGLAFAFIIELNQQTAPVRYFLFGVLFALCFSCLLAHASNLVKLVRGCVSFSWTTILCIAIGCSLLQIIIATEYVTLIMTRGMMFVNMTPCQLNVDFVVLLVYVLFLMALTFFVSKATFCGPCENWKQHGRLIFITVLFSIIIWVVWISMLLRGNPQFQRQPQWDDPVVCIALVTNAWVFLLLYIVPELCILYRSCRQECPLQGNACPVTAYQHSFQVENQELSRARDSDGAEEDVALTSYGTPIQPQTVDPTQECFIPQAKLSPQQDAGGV
T1 sequence (P07766 23-207, one chain of several): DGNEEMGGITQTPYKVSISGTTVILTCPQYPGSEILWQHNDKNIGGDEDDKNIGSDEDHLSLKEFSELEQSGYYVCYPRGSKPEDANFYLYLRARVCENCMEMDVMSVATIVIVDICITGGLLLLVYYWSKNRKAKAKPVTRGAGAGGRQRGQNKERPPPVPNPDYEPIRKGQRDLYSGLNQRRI
T2 sequence (Q95LI5 22-198): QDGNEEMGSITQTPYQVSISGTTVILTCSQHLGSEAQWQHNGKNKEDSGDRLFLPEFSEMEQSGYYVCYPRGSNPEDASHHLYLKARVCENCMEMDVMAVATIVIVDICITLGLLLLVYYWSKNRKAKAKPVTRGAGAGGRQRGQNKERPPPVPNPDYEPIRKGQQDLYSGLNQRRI

B1: GCDB381 (CD3B376 Fab in bivalent IgG1-AAS antibody) (antibody, V domains shown)
VH: QVQLQQSGPRLVRPSQTLSLTCAISGDSVFNNNAAWSWIRQSPSRGLEWLGRTYYRSKWLYDYAVSVKSRITVNPDTSRNQFTLQLNSVTPEDTALYYCARGYSSSFDYWGQGTLVTVSS
VL: QSALTQPASVSGSPGQSITISCTGTSSNIGTYKFVSWYQQHPDKAPKVLLYEVSKRPSGVSSRFSGSKSGNTASLTISGLQAEDQADYHCVSYAGSGTLLFGGGTKLTVL
EC50 (read off the curve) [1]: ~80 nM | EC50 (read off the curve) [2]: ~70 nM | binding result [3]: binds | EC50 (read off the curve) [4]: ~80 nM

B2: GC5B680 (parental anti-GPRC5D binder, tested as Fab) (Fab, V domains shown)
VH: QVTLKESGPVLVKPTETLTLTCTVSGFSLTNIRMSVSWIRQPPGKALEWLAHIFSNDEKSYSTSLKSRLTISRDTSKSQVVLTLTNVDPVDTATYYCARMRLPYGMDVWGQGTTVTVSS
VL: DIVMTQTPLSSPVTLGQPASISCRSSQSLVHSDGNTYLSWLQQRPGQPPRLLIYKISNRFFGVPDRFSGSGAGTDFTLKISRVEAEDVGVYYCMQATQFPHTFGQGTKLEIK
notes: Tested 'as Fab'; also called GPRC5d lead
EC50 [5]: 6 to 24 nM | EC50 [6]: 6 to 24 nM

B3: BCMB519 (parental anti-BCMA binder, tested as scFv) (scFv, V domains shown)
VH: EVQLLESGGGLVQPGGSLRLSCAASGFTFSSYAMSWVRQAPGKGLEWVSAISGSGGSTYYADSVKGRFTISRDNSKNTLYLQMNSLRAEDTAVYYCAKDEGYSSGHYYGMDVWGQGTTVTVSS
VL: EIVLTQSPGTLSLSPGERATLSCRASQSISSSFLTWYQQKPGQAPRLLIYGASSRATGIPDRFSGGGSGTDFTLTISRLEPEDFAVYYCQHYGSSPMYTFGQGTKLEIK
notes: Tested 'as scFv'; also called BCMA lead
Kd [7]: 0.28 nM | Kd [8]: 0.28 nM | EC50 [9]: 2.3 to 3.2 nM | EC50 [10]: 2.3 to 3.2 nM

B4: Teclistamab (BCMA×CD3 bispecific antibody) (bispecific antibody)
chain 1: not shown
chain 2: SYVLTQPPSVSVAPGQTARITCGGNNIGSKSVHWYQQPPGQAPVVVVYDDSDRPSGIPERFSGSNSGNTATLTISRVEAGDEAVYYCQVWDSSSDHVVFGGGTKLTVLGQPKAAPSVTLFPPSSEELQANKATLVCLISDFYPGAVTVAWKGDSSPVKAGVETTTPSKQSNNKYAASSYLSLTPEQWKSHRSYSCQVTHEGSTVEKTVAPTECS
chain 3: EVQLVESGGGLVQPGGSLRLSCAASGFTFNTYAMNWVRQAPGKGLEWVARIRSKYNNYATYYAASVKGRFTISRDDSKNSLYLQMNSLKTEDTAVYYCARHGNFGNSYVSWFAYWGQGTLVTVSSASTKGPSVFPLAPCSRSTSESTAALGCLVKDYFPEPVTVSWNSGALTSGVHTFPAVLQSSGLYSLSSVVTVPSSSLGTKTYTCNVDHKPSNTKVDKRVESKYGPPCPPCPAPEAAGGPSVFLFPPKPKDTLMISRTPEVTCVVVDVSQEDPEVQFNWYVDGVEVHNAKTKPREEQFNSTYRVVSVLTVLHQDWLNGKEYKCKVSNKGLPSSIEKTISKAKGQPREPQVYTLPPSQEEMTKNQVSLTCLVKGFYPSDIAVEWESNGQPENNYKTTPPVLDSDGSFLLYSKLTVDKSRWQEGNVFSCSVMHEALHNHYTQKSLSLSLGK
chain 4: QTVVTQEPSLTVSPGGTVTLTCRSSTGAVTTSNYANWVQQKPGQAPRGLIGGTNKRAPGTPARFSGSLLGGKAALTLSGVQPEDEAEYYCALWYSNLWVFGGGTKLTVLGQPKAAPSVTLFPPSSEELQANKATLVCLISDFYPGAVTVAWKADSSPVKAGVETTTPSKQSNNKYAASSYLSLTPEQWKSHRSYSCQVTHEGSTVEKTVAPTECS
CD3 T-cell activation EC50, H929-GPRC5D-KO [11]: 0.253 nM | CD3 T-cell activation EC50, H929-WT [11]: 0.334 nM | Cytotoxicity EC50, H929-GPRC5D-KO [11]: 0.198 nM | Cytotoxicity EC50, H929-WT [11]: 0.275 nM

B5: Talquetamab (GPRC5D×CD3 bispecific antibody) (bispecific antibody)
chain 1: not shown
chain 2: DIQMTQSPSSLSASVGDRVTITCKASQNVATHVGWYQQKPGKAPKRLIYSASYRYSGVPSRFSGSGSGTEFTLTISNLQPEDFATYYCQQYNRYPYTFGQGTKLEIKRTVAAPSVFIFPPSDEQLKSGTASVVCLLNNFYPREAKVQWKVDNALQSGNSQESVTEQDSKDSTYSLSSTLTLSKADYEKHKVYACEVTHQGLSSPVTKSFNRGEC
chain 3: EVQLVESGGGLVQPGGSLRLSCAASGFTFNTYAMNWVRQAPGKGLEWVARIRSKYNNYATYYAASVKGRFTISRDDSKNSLYLQMNSLKTEDTAVYYCARHGNFGNSYVSWFAYWGQGTLVTVSSASTKGPSVFPLAPCSRSTSESTAALGCLVKDYFPEPVTVSWNSGALTSGVHTFPAVLQSSGLYSLSSVVTVPSSSLGTKTYTCNVDHKPSNTKVDKRVESKYGPPCPPCPAPEAAGGPSVFLFPPKPKDTLMISRTPEVTCVVVDVSQEDPEVQFNWYVDGVEVHNAKTKPREEQFNSTYRVVSVLTVLHQDWLNGKEYKCKVSNKGLPSSIEKTISKAKGQPREPQVYTLPPSQEEMTKNQVSLTCLVKGFYPSDIAVEWESNGQPENNYKTTPPVLDSDGSFLLYSKLTVDKSRWQEGNVFSCSVMHEALHNHYTQKSLSLSLGK
chain 4: QTVVTQEPSLTVSPGGTVTLTCRSSTGAVTTSNYANWVQQKPGQAPRGLIGGTNKRAPGTPARFSGSLLGGKAALTLSGVQPEDEAEYYCALWYSNLWVFGGGTKLTVLGQPKAAPSVTLFPPSSEELQANKATLVCLISDFYPGAVTVAWKADSSPVKAGVETTTPSKQSNNKYAASSYLSLTPEQWKSHRSYSCQVTHEGSTVEKTVAPTECS
CD3 T-cell activation EC50, H929-BCMA-KO [12]: 0.633 nM | CD3 T-cell activation EC50, H929-WT [12]: 0.233 nM | Cytotoxicity EC50, H929-BCMA-KO [12]: 0.761 nM | Cytotoxicity EC50, H929-WT [12]: 0.243 nM
